Results: US9279769B2, “Proteins that efficiently generate singlet oxygen” (The Regents of the University of California, priority 2010, dated 2016)
Values joined by “and” are separate entries in the source; they are usually repeats but may differ in a detail not shown here. Identical values can stand only once.

Test system: IFP1.4
Assay: bleaching of fused IFP1.4 in E. coli colonies by blue light
Type: cell-based
From the text: In phototropin, the excited state energy of FMN is consumed to form a covalent bond with a cysteine. To divert this energy into ^1O2 generation, we carried out saturation mutagenesis of the relevant cysteine (Cys426) of the LOV2 domain of Arabidopsis thaliana phototropin 2 (AtPhot2). To screen for optimal ^1O2 production, these site-specific mutants were fused to an infrared fluorescent protein, IFP1.4, which is readily bleached by ^1O2 [21]. Colonies of E. coli expressing the fusion proteins were imaged in the IFP channel (ex 684/em 708 nm) before and after blue light (488 nm) illumination (FIG. 1A). […] The small side chain of the glycine residue may provide space around the cofactor that would allow O2 close apposition to FMN for efficient energy transfer.
[…] was synthesized by overlap extension PCR [48]. Genetic libraries were constructed by saturation and random mutagenesis and DNA shuffling. Mutants were fused to IFP1.4 by overlap extension PCR and cloned into a modified pBAD vector containing the heme oxygenase-1 gene from cyanobacteria. Libraries were expressed in E. coli strain TOP10 and screened by imaging the agar plates with colonies in the IFP channel before and after blue light illumination. Protein purification and spectroscopic characterization experiments were done as described.

B1: C426G (protein)
chain: MERPRAPPSPLNDAESLSERRSLEIFNPSSGKETHGSTSSSSKPPLDGNNKGSSSKWMEFQDSAKITERTAEWGLSAVKPDSGDDGISFKLSSEVERSKNMSRRSSEESTSSESGAFPRVSQELKTALSTLQQTFVVSDATQPHCPIVYASSGFFTMTGYSSKEIVGRNCRFLQGPDTDKNEVAKIRDCVKNGKSYCGRLLNYKKDGTPFWNLLTVTPIKDDQGNTIKFIGMQVEVSKYTEGVNDKALRPNGLSKSLIRYDARQKEKALDSITEVVQTIRHRKSQVQESVSNDTMVKPDSSTTPTPGRQTRQSDEASKSFRTPGRVSTPTGSKLKSSNNRHEDLLRMEPEELMLSTEVIGQRDSWDLSDRERDIRQGIDLATTLERIEKNFVISDPRLPDNPIIFASDSFLELTEYSREEILGRNGRFLQGPETDQATVQKIRDAIRDQREITVQLINYTKSGKKFWNLFHLQPMRDQKGELQYFIGVQLDGSDHVEPLQNRLSERTEMQSSKLVKATATNVDEAVRELPDANTRPEDLWAAHSKPVYPLPHNKESTSWKAIKKIQASGETVGLHHFKPIKPLGSGDTGSVHLVELKGTGELYAMKAMEKTMMLNRNKAHRACIEREIISLLDHPFLPTLYASFQTSTHVCLITDFCPGGELFALLDRQPMKILTEDSARFYAAEVVIGLEYLHCLGIVYRDLKPENILLKKDGHIVLADFDLSFMTTCTPQLIIPAAPSKRRRSKSQPLPTFVAEPSTQSNSFVGTEEYIAPEIITGAGHTSAIDWWALGILLYEMLYGRTPFRGKNRQKTFANILHKDLTFPSSIPVSLVGRQLINTLLNRDPSSRLGSKGGANEIKQHAFFRGINWPLIRGMSPPPLDAPLSIIEKDPNAKDIKWEDDGVLVNSTDLDIDLF
modifications: miniSOG polypeptide
B1 was tested, and the “decrease of IFP fluorescence” value (blue light (488 nm) illumination) was −70%, the “IFP1.4 brightness before irradiation” value (two colonies, fusion to IFP1.4) was 100 and 96 and the “IFP1.4 brightness after irradiation” value (two colonies, irradiation at 480/30 nm) was 27 and 28.
